Laboratory results taken from patent US6544520B1, “Hepatitis B virus inhibitors” (priority 1996, dated 2003).
Values joined by “and” are separate entries in the source; they are usually repeats but may differ in a detail not shown here. Identical values can stand only once. Non-standard residues stand in square brackets, D forms with d. Residues, ends and D or L forms follow the SMILES beside them. No end group written: not given here. βAla = NCCC(=O)O

The molecules below were run against hepatitis B virus core antigen (HBcAg) (hepatitis B virus) (assay: peptide inhibition of 35S-labeled L HBsAg binding to HBcAg-coated wells). Details: not given.
Chain of hepatitis B virus core antigen (HBcAg) (hepatitis B virus) (P03147 whole entry): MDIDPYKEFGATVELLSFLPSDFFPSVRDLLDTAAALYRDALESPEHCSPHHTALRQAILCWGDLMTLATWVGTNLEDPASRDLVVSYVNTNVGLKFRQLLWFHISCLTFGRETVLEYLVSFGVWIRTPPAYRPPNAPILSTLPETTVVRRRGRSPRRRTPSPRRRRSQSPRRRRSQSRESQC

Molecule | IC50
peptide ALLGRMKG | 10 µM
peptide LDPAFR | 360 µM

Biological target: hepatitis B virus core antigen (HBcAg) (hepatitis B virus)
Assay: as above
Details: not given
Remark: another data set of the same source

Molecule | IC50
peptide ALLGRMKG | 11 µM
peptide AcSLLGRMKG | 26.2 µM
peptide CLLGRMKC | 652 µM
peptide LGRMKG | 980 µM
peptide LLGRMKG | 46.2 µM
peptide SLLGRMK | 40.7 µM
peptide SLLGRMKG | 6.4 µM
peptide SLLGRMKG(β-A)C | 1.8 µM

These molecules were tested against T1, association of L HBsAg with HBcAg (Hepatitis B virus genotype D subtype adw, UniProt P03147) (assay: biochemical). Details: not given.
T1 construct: Purification of Particles Comprising Full-Length or Truncated HBcAg; made in house; host or cells: HBcAg: E. coli RB 791; L HBsAg: in vitro translation in rabbit reticulocyte lysate with canine pancreatic microsomal membranes
T1 sequence (P03147 whole entry, the tested form may be a part): as the sequence (P03147 whole entry) above
Format: binding
Protocol: Inhibitors of the Association of HBsAg with HBcAg. The assay system developed for inhibitors of the interaction between HBsAg and HBcAg involved incubating purified membrane-inserted ^35S-labeled L polypeptide in HBcAg-coated wells and quantitating bound protein by scintillation counting. […] The principal target for polyclonal antibodies to the native, particulate S HBsAg resides between as 110 and aa 150 (31-33). […] However, large molecules, such as immunoglobulins, can cause stearic hindrance over a considerable distance in any compound to which they bind.
Inhibition of Membrane-Inserted L-Protein Binding to HBcAg by Antibodies and Peptides. Canine pancreatic microsomal membranes containing labeled protein were purified by layering the translation mixture (60 μl) on a 4-ml step gradient of 1-ml intervals of 77% (wt/vol), 30%, 20%, and 10% sucrose containing 20 mM Hepes (adjusted to pH 7.5 with NaOH)/2 mM dithiothreitol for fractionation by centrifugation (50,000 rpm, 2 hr at 4° C.; Sorvall model TsT 60.4 rotor). […] Sucrose gradient-purified L protein (4 μl) was diluted with NET-gel buffer (100 μl) containing various dilutions of either antibody or peptide for inhibition assays. Mixtures were incubated in HBcAg-coated wells (as in the paragraph Isolation of Phage that Bind to HBcAg) for 2 ½ hr at 4° C. and washed five times with NET-gel buffer with 10-min intervals. Wells were placed in scintillation vials containing Ecoscint A (5 ml; National Diagnostics) for quantitation of radioactivity.

Molecule | inhibition of the reaction between L HBsAg and HBcAg (in words)
ALLTRILG (HBV Core Antigen Binding Peptide) [peptide including aa 21-27 of the S region, reference compound] | no inhibitory properties
GRMKG (not fully specified) | no inhibitory properties

Same assay, conditions: IC50: concentration of peptide required to inhibit the binding of L HBsAg to HBcAg at a half maximal level, free peptide; HBcAg-coated wells

Molecule | IC50
CSCC[C@H](NC(=O)[C@H](CCCNC(=N)N)NC(=O)CNC(=O)[C@H](CC(C)C)NC(=O)[C@H](CC(C)C)NC(=O)[C@H](CO)NC(=O)CNC(=O)[C@H](CC(=O)O)NC(=O)[C@H](C)N)C(=O)N[C@@H](CCCCN)C(=O)NCC(=O)N[C@@H](C)C(=O)N[C@@H](C)C(=O)NCC(=O)O | 4.5 ± 0.8 µM
CSCC[C@H](NC(=O)[C@H](CCCNC(=N)N)NC(=O)CNC(=O)[C@H](CC(C)C)NC(=O)[C@H](CC(C)C)NC(=O)[C@H](CO)NC(=O)CNC(=O)[C@@H](N)CC(=O)O)C(=O)N[C@@H](CCCCN)C(=O)NCC(=O)N[C@@H](C)C(=O)N[C@@H](C)C(=O)O | 3 ± 0.4 µM
CSCC[C@H](NC(=O)[C@H](CCCNC(=N)N)NC(=O)CNC(=O)[C@H](CC(C)C)NC(=O)[C@H](CC(C)C)NC(=O)[C@H](CO)NC(=O)CN)C(=O)N[C@@H](CCCCN)C(=O)NCC(=O)N[C@@H](C)C(=O)O | 0.79 ± 0.23 µM
CSCC[C@H](NC(=O)[C@H](CCCNC(=N)N)NC(=O)CNC(=O)[C@H](CC(C)C)NC(=O)[C@H](CC(C)C)NC(=O)[C@H](CO)NC(=O)[C@H](CCCNC(=N)N)NC(=O)[C@H](Cc1cnc[nH]1)NC(=O)[C@@H](N)CCSC)C(=O)N[C@@H](CCCCN)C(=O)NCC(=O)N[C@@H](C)C(=O)O | 0.8 ± 0.1 µM
CSCC[C@H](NC(=O)[C@H](CCCNC(=N)N)NC(=O)CNC(=O)[C@H](CC(C)C)NC(=O)[C@H](CC(C)C)NC(=O)[C@H](CO)NC(=O)[C@H](CCCNC(=N)N)NC(=O)[C@H](Cc1c[nH]cn1)NC(=O)[C@@H](N)CCSC)C(=O)N[C@@H](CCCCN)C(=O)NCC(=O)N[C@@H](C)C(=O)NCC(=O)NCCC(=O)NCC(=O)N[C@@H](CS)C(=O)O | 3.8 ± 0.69 µM
CSCC[C@H](NC(=O)[C@H](CCCNC(=N)N)NC(=O)CNC(=O)[C@H](CC(C)C)NC(=O)[C@H](CC(C)C)NC(=O)[C@H](CO)NC(=O)[C@@H](N)CCCNC(=N)N)C(=O)N[C@@H](CCCCN)C(=O)NCC(=O)N[C@@H](C)C(=O)O | 0.29 ± 0.02 µM
CSCC[C@H](NC(=O)[C@H](CCCNC(=N)N)NC(=O)CNC(=O)[C@H](CC(C)C)NC(=O)[C@H](CC(C)C)NC(=O)[C@H](CO)NC(=O)[C@@H](N)CCCNC(=N)N)C(=O)N[C@@H](CCCCN)C(=O)NCC(=O)N[C@@H](C)C(=O)NCCC(=O)N[C@@H](CS)C(=O)O | 0.29 ± 0.03 µM
CSCC[C@H](NC(=O)[C@H](CCCNC(=N)N)NC(=O)CNC(=O)[C@H](CC(C)C)NC(=O)[C@H](CC(C)C)NC(=O)[C@@H](N)CO)C(=O)N[C@@H](CCCCN)C(=O)NCC(=O)NCCC(=O)N[C@@H](CS)C(=O)O (H-SLLGRMKG[βAla]C-OH) | 1.8 ± 0.4 µM
ALLGRMKG | 10 µM and 11 µM
Ac-SLLGRMKG | 26.2 ± 5 µM
HRSLLGRMKGA | 0.5 ± 0.04 µM
LDPAFR [LDPAFR, reference compound] | ~360 µM
LGRMKG [LGRMKG] | 980 ± 157 µM
LLGRMKG [LLGRMKG] | 46.2 ± 7.4 µM
SLLGRMK [SLLGRMK] | 40.7 ± 4.8 µM
SLLGRMKG | 6.4 ± 0.7 µM
SLLGRMKGA | 2.4 ± 0.2 µM

Same assay, conditions: free peptide; HBcAg-coated wells

Molecule | IC50: concentration of peptide required to inhibit the binding of L HBsAg to HBcAg at a half maximal level
ALLPRMKG | no
GRMKG (not fully specified) | no^2
LLGRM (not fully specified) | no

Same assay, conditions: inhibition of L HBsAg binding to HBcAg

Molecule | fold improvement over the original ALLGRMKG peptide
CSCC[C@H](NC(=O)[C@H](CCCNC(=N)N)NC(=O)CNC(=O)[C@H](CC(C)C)NC(=O)[C@H](CC(C)C)NC(=O)[C@H](CO)NC(=O)[C@@H](N)CCCNC(=N)N)C(=O)N[C@@H](CCCCN)C(=O)NCC(=O)N[C@@H](C)C(=O)O | > 40 fold

These molecules were tested against T2, HBcAg (Hepatitis B virus genotype D subtype adw, UniProt P03147) (assay: Peptide inhibition of fusion phage binding to HBcAg-coated wells). Details: not given.
T2 construct: Purification of Particles Comprising Full-Length or Truncated HBcAg; made in house; host or cells: E. coli RB 791
T2 sequence (P03147 whole entry, the tested form may be a part): as the sequence (P03147 whole entry) above
Protocol: Phage-Binding Assay in Solution. […] Aliquots (100 μl) of each mixture were transferred to polystyrene wells (no. 2585, Costar) that had been coated with HBcAg (20 μg/ml in PBS; 125 μl per well). After 1 hr at 6° C. the wells were washed 10 times with TBS/BSA at 0.2 mg/ml. Bound phage were recovered and titered as described in the previous section. All assays were done in triplicate. The HBcAg concentration range was 1.58-50 μM for experiments with phage B2 and B3 and was 0.63-20 μM for experiments with phage B4. For peptide inhibition experiments, fusion phage (10^9 pfu/ml; 200 μl) were incubated with various concentrations of peptide (1 mM-10 nM) in HBcAg-coated wells for 90 min at 6° C.

Molecule | inhibition of binding of fusion phage to HBcAg
ALLTRILG (HBV Core Antigen Binding Peptide) [peptide including aa 21-27 of the S region, reference compound] | inability to inhibit
GRMKG (not fully specified) | inability to inhibit

Each molecule was assayed against hepatitis B virus core antigen (HBcAg) (hepatitis B virus) (assay: phage-binding assay in solution: phage incubated with HBcAg, free phage caught on HBcAg-coated wells and titered). Details: not given.

Molecule | KD^Rel (relative dissociation constant)
ADGYQRSLLGRMKGA (peptide, not shown: large carriers) [phage 4A-28] | 0.00088 µM
ADGTLLGRMKLA (peptide, not shown: large carriers) [phage 4] | 0.02 µM
ADGALLGRMKPA (peptide, not shown: large carriers) [phage 2] | 0.767 µM
ADGPRSSLLGRMKGA (peptide, not shown: large carriers) [phage 4A-2] | 0.00084 µM
ADGTQRSLLGRMKGA (peptide, not shown: large carriers) [phage 4A-26] | 0.00084 µM
ADGSLLGRMKPA (peptide, not shown: large carriers) [phage 1] | 0.322 µM
ADGALLGRMKRA (peptide, not shown: large carriers) [phage 6] | 0.181 µM
ADGHRSSLLGRMKGA (peptide, not shown: large carriers) [phage 4B-7] | 0.0014 µM
ADGSRSSLLGRMKGA (peptide, not shown: large carriers) [phage 4A-1] | 0.00196 µM
ADGAHRSLLGRMKGA (peptide, not shown: large carriers) [phage 4A-3] | 0.00094 µM
ADRSLLGRMKGA (peptide, not shown: large carriers) [phage 2A-8] | 0.00109 µM
